According to patent US20240409645A1 (DUALYX, published 2024):

T1: human IL-2Rβ (human, UniProt P14784 27-240, limits assumed)
T1 construct: recombinant protein, coated or immobilised; also called hu IL-2R; IL-2R beta
T1 sequence: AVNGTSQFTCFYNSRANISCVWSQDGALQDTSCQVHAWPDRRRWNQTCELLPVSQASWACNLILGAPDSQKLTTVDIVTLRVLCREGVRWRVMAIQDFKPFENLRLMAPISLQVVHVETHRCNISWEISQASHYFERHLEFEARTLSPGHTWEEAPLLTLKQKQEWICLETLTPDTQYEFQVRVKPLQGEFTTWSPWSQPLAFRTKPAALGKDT

B1: FJ1427_P035MP02G10 (VHH)
VHH: QVQLVESGGGLVQAGGSLRLSCAASGRTFSTTEMGWFRQAPGKEREFVAAITWTGRGTMYAESVEGRFTISRENAKNMVYLQMNSLKPEDTAIYYCAAARRGRAAVRSEGGYDFWGQGTQVTVSS
notes: soluble VHH in periplasmic extract; also called clone nr
B2: FJ1427 P035MP02C11 (VHH)
VHH: QVQLVESGGGLVQAGGSLRLSCAVSGDVFVRYTMAWFRQAPGKEREFVASVTDSGRTTEYVDSVKGRFTVSRDNAKNTVYLQMNSLKPEDTAVYYCAANTDYFQIRSLRANTWGQGTQVTVSS
notes: as for B1
B3: FJ1427 P035MP02F07 (VHH)
VHH: QVQLVESGGGLVQAGGSLRLSCAASGDVFVRYTMAWFRQAPGKEREFVASVTDSGRTTDYVDSVKGRFTVSRDNAKNTVYLQMNNLKPEDTARYYCAANTDYFQIRSLDANTWGQGTQVTVSS
notes: soluble VHH in periplasmic extract; also called clone nr; 150
B4: FJ1427_P035MP02A09 (VHH)
VHH: QVQLVESGGGLVQAGGSLRLSCAVSGDVFVRYTMAWFRQAPGKEREFVASVTDSGRTTEYVDSAKGRFTVSRDNAKNTVYLQMNSLKPEDTAVYYCAANTDYFQIRSLRANTWGQGTQVTVSS
notes: as for B1
B5: FJ1427_P035MP02E07 (VHH)
VHH: QVQLVESGGGLVQAGGSLGLACALSGDVFVRYTMAWFRQAPGKEREFVASVTDSGRTTDYVASVQGRFTVSRDNNKNTVYLQMNSLKPEDTAVYYCAANTDYFQIRSLDRNTWGQGTQVTVSS
notes: as for B1
B6: FJ1427_P035MP02G07 (VHH)
VHH: QVQLVESGGGLVQAGGSLRLSCAVSGDVFVRYTMAWFRQAPGKEREFVASVTDSGRTTEYVDSVKGRFTVSRDNAKNTAYLQMNNLKPEDTAVYYCAANTDYFQIRSLDLNTWGQGTQVTVSS
notes: as for B1
B7: FJ1427_P035MP06A07 (VHH)
VHH: QVQLQESGGGLVQAGGSLRLSCAASGDVFVRYTMAWFRQAPGKEREFVASVTDSGRTTEYVDSVKGRFTVSRDNAKNTAYLQMNNLKPEDTAIYYCAANTDYFQIRSLDLNTWGQGTQVTVSS
notes: soluble VHH in periplasmic extract; also called 26-MP06A07; clone nr
B8: FJ1427_P035MP06F03 (VHH)
VHH: QVQLVESGGGLVQAGGSLRLSCAVSGDVFVRYTMAWFRQAPGKEREFVASVTDSGRTTDYVHSVKGRFTVSRDNAKNTVYLQMNNLKPEDTAVYYCAANTDYFQIKSLDANTWGQGTQVTVSS
notes: soluble VHH in periplasmic extract; also called 23-MP06F03; clone nr; 502
B9: FJ1427 P035MP02C08 (VHH)
VHH: EVQLVESGGGLVQAGGSLRLSCAASGSTFSRQPMYWFRQAPGKEREFVAAITWSGRGTLYADSVEGRFTISRDNAKNTVYLQMNSLRPDDTAAYYCAAGPYGDAAYRHGRIDSWGQGTQVTVSS
notes: as for B1
B10: FJ1427_P035MP02F08 (VHH)
VHH: QVQLVESGGGLVQAGGSLRLSCAASGSIFSLNTMGWFRQAPGKEREFVAAISRSGGSATYGDSVKGRFTISTNNAKTTVYLQMNSLKPDDTAVYSCAASAAVGWTTRWSTIDFDSWGQGTQVTVSS
notes: as for B1
B11: FJ1427_P035MP02H08 (VHH)
VHH: EVQLVESGGGLVQAGDSLRISCAASGRIFSNYAMGWFRQAPGKETEFVAGITHLTSTTHYADSVKGRFTISRDNAKNTMHLQMNNLKPEDTALYYCAADRNIKITADWSYWGQGTQVTVAS
notes: soluble VHH in periplasmic extract; also called clone nr; 160
B12: FJ1427 P035MP02D11 (VHH)
VHH: QVQLQESGGGLVQAGDSLRISCAASGRIFSNYAMGWFRQAPGKETEFVAGITHLTSTTHYADSVKGRFTISRDNAKNTMHLQMNNLKPEDTALYYCAADRNIKITADWSYWGQGTQVTVAS
notes: soluble VHH in periplasmic extract; also called clone nr; 180
B13: FJ1427 P035MP02A10 (VHH)
VHH: QLQLVESGGGLVQTGTSLRLSCAASGHTSRINAMGWFRQFPGKEREFVAAISRNGGSTVYVDSVKGRFTISRDNAKSTVYLQMNSLKPEDTAVYYCTATDAVGWTTRWMTADFGFWGQGTQVTVSS
notes: as for B1
B14: FJ1427 P035MP02D10 (VHH)
VHH: EVQLVESGGGLVQAGGSLRLSCAASGRTFSSDAKAWFRQAPGKEREFVAAITWAGRGTDYADSVKDRFTITRDNAKNMVYLQMSSLKPEDTAVYYCALNPTGVIGPGFRNSNRYDYWGQGTQVTVAS
notes: as for B1
B15: FJ1427 P035MP02E11 (VHH)
VHH: QVQLQESGGGLVQAGGSLRLSCAASGRTFSNYVMAWFRQAPGKEREFVGAITQTGRGTFYADSVEGRFTISRINDKNTVYLQMNSLKPEDTAVYYCSAPRSGRAGTRNQMDYEYWGQGTQVTVSS
notes: as for B1
B16: FJ1427_P035MP02C09 (VHH)
VHH: QVQLQESGGGLVQAGGSLRLSCVASGSVSSINGMAWYRQGADNQRVLVAAISRVGNTAYGDSVKGRFTISRQNARNTVYLQMNSLKPEDTAVYYCNADSWGGDDYWGQGTQVTVSS
notes: soluble VHH in periplasmic extract; also called 17-MP02C09; clone nr
B17: FJ1427_P035MP03C03 (VHH)
VHH: QVQLVESGGGLVQPGGSLRLSCAISGGTLDSYGIGWVRQAPGKQREGVSCMSRSDDRTYYADSVKGRFTISKDSAKNTVYLQMTSLKPEDTAVYYCAAVDAYGCSLVQPTTYDFWGLGTQVTVSS
notes: soluble VHH in periplasmic extract; also called 18-MP03C03; clone nr
B18: FJ1427_P035MP03F08 (VHH)
VHH: EVQLVESGGGLVQTGGSLRLSCAASGGTFSRDAMAWFRQVPGKEREFVALISWSGATTNYADSVKGRFAISRDNGKNTVYLQMNRLKPADTAIYYCAADRRPMGSRSYFEPTEYDDWGQGTQVTVSS
notes: soluble VHH in periplasmic extract; also called 19-MP03F08; clone nr
B19: FJ1427_P035MP03F10 (VHH)
VHH: EVQLVESGGGLVQAGGSLRLSCAASGRDFSSYAMGWFRQAPGKEREFVVAITWTKRSTDFPDSVKGRFTISRDNAKNTVYLDMNSLKPEDTAVYYCASARGLPVTPLGDIIYWGEGTLVTVSS
notes: soluble VHH in periplasmic extract; also called 20-MP03F10; clone nr; 270
B20: FJ1427_P035MP03F12 (VHH)
VHH: EVQLVESGGGLVQAGGSLRLSCAASGSIFSINAMAWFRQVPGMERELVAAISRDGGASVYRDSVKGRFTISRDNSKNTVYLQMNTLKPEDTAIYVCAATRAIGWTARWITTDFDFWGQGTQVTVSS
notes: soluble VHH in periplasmic extract; also called 22-MP03F12; clone nr
B21: FJ1427 P035MP06E05 (VHH)
VHH: QVQLVESGGELVQGGASLRLSCAASGRTFSNANMAWFRQAPEKEREFVALITWSSGSTLYADSVKGRFTISRDNARKMVYLQMNSLKPEDTAVYYCAADGPPYSGTYYRYDTYDYWGQGTQVTVSS
notes: soluble VHH in periplasmic extract; also called 24-MP06E05; clone nr; 517
B22: FJ1427_P035MP06F05 (VHH)
VHH: QVQLVESGGGLVQTGDSLRLSCAASGRSLDTTYIAWFRQAPGKERDFLAYISPRFSHTWYADSVKGRFTISRNIAKRTVDLEMNSLEPEDTAVYYCAAREHSGSTAWEHYDHWGQGTQVTVSS
notes: soluble VHH in periplasmic extract; also called 25-MP06F05; clone nr
B23: FJ1427_P035MP02A01 (VHH)
VHH: QVQLVESGGGLVQTGGSLRLSCVVSGSHFISDVMGWYRQVPGKQRELVADMADGGSAKYGDSVKGRFTILRDSVKNTVYLQMSSLNPEDTGVYYCKAGLWITGRHSDYWGQGTQVTVSS
notes: soluble VHH in periplasmic extract; also called clone nr; 97
B24: FJ1427_P035MP02G01 (VHH)
VHH: QVQLVESGGGLVQTGGSLRLSCAVSGSRFISDVMGWYRQVPGKQRELVADMADGGSAKYADSVKGRFSILRDSAKNTVYLQMSSLKPEDTGIYYCKAGLWIAGRHSDYWGQGTQVTVSS
notes: as for B1
B25: FJ1427_P035MP02H01 (VHH)
VHH: QVQLVESGGGLVQPGGSLGLSCAASGFTFDNYAMSWVRQAPGKGLEWVSSITGAGRGTHYADSVKGRFTISRDNAKNTLYLQMNSLKPEDTAVYYCAKYSSSTYYPPTPARGTDYRGPGTQVTVSS
notes: as for B1
B26: FJ1427_P035MP02B02 (VHH)
VHH: EVQLVESGGTLVQTGGSLRLSCVVSGSHFISDVMGWYRQVPGKQRELVADMADGGSAKYGDSVKGRFTIVRDSVKNTVYLQMSSLNPEDTGVYYCKAGLWIKGRHSDYWGQGTQVTVTS
notes: as for B1
B27: FJ1427 P035MP02D02 (VHH)
VHH: QVQLVESGGGLVQVGGSLSVSCAASGRSFDSITMAYFRQAPGNEREFIAGINFSGSRTAYGDSVKGRFTISRDNAKNTVFLQMNSLNPEDTAVYYCAASPRGFYGPGHALYDYWGQGTQVTVSS
notes: as for B1
B28: FJ1427 P035MP02G02 (VHH)
VHH: QVQLVESGGGLVQPGGSLRLSCAASGSHFISDVMGWYRQVPGKQRELVADMADGGSVKYGDSVKGRFTILRDSVKNTVTLQMSSLNPEDTGVYYCKAGLWITGRHFDYWGQGIQVTVTS
notes: as for B1

What was measured:
human IL-2Rβ [1] = target: T1, human IL-2Rβ; test: P.E. ELISA, coated protein
How it was run: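 Plates were coated overnight at 4° C with human or mouse IL-2R chain protein, and free sites blocked for 1 hour in 4% Marvel in PBS. Periplasmic extracts diluted 1:5 in 1% Marvel/PBS then bound for 1 hour, with specificity assessed from 450 nm absorbance relative to negative controls.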

human IL-2Rβ [2] = target: T1, human IL-2Rβ; test: SPR, P.E. off-rate
How it was run: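 Recombinant receptor was amine-coupled in acetate buffer onto a CM5 carboxymethyl dextran chip at approximately 2500 RU. VHH-containing periplasmic extracts were injected at 30 uL/min, and dissociation was followed for 120s to give off-rates.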

Binder	P.E. binding ELISA OD (human IL-2Rβ [1]) [OD450 nm]	koff (human IL-2Rβ [2]) [s⁻¹]
B1	0.974	0.000307
B2	1.57	0.000433
B3	0.848	0.00164
B4	1.3	0.000617
B5	0.541	0.000577
B6	0.636	0.000259
B7	1.03	0.000363
B8	0.54	0.00105
B9	0.254	0.00333
B10	0.614	0.00153
B11	0.885	0.000731
B12	0.463	0.000833
B13	0.359	0.00226
B14	0.557	0.00109
B15	0.529	0.00188
B16	1.21	0.000848
B17	0.405	0.000594
B18	0.245	0.000296
B19	0.497	0.000595
B20	0.781	0.000419
B21	0.355	0.000471
B22	0.159	0.000836
B23	0.311	0.00023
B24	0.169	0.000368
B25	0.487	0.00106
B26	0.343	0.000164
B27	0.831	0.000529
B28	0.177	0.000112
